{
  "source": "patent US11001824",
  "about": "(UNIVERSITY OF GEORGIA RESEARCH FOUNDATION, dated 2021)",
  "binders": {"B1": {"name": "wild-type PNGase F from Flavobacterium meningosepticum (enzyme)", "chain": "GIPAPADNTVNIKTFDKVKNAFGDGLSQSAEGTFTFPADVTAVKTIKMFIKNECPNKTCDEWDRYANVYVKNKTTGEWYEIGRFITPYWVGTEKLPRGLEIDVTDFKSLLSGNTELKIYTETWLAKGREYSVDFDIVYGTPDYKYSAVVPVVQYNKSSIDGVPYGKAHTLALKKNIQLPTNTEKAYLRTTISGWGHAKPYDAGSRGCAEWCFRTHTIAINNSNTFQHQLGALGCSANPINNQSPGNWTPDRAGWCPGMAVPTRIDVLNNSLIGSTFSYEYKFQNWTNNGTNGDAFYAISSFVIAKSNTPISAPVVTNLDPHHHHHH", "notes": "also called wtPNGase F; 1PNF"}, "B2": {"name": "PNGase F clone R911 (D57L, D60C, I156L, G192I, E206S, R248W) (designed binder)", "chain": "B1 chain with D60L, D63C, I159L, G195I, E209S, R251W"}, "B3": {"name": "PNGase F D60A single point mutant (enzyme)", "chain": "B1 chain with D63A", "notes": "also called D60A control clone"}, "B4": {"name": "PNGase F clone R911 C60A (D57L, D60A, I156L, G192I, E206S, R248W) (designed binder)", "chain": "B1 chain with D60L, D63A, I159L, G195I, E209S, R251W"}},
  "key": {"[1]": {"target": "T1, denatured bovine pancreatic Ribonuclease B (bovine, UniProt P61823 27-150)", "T1 construct": "mature; also called dRNase B; denatured RNase B", "T1 sequence": "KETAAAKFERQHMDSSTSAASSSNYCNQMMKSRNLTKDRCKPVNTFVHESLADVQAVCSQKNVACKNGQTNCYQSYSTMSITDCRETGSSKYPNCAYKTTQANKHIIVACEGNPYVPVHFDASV", "test": "experimental binding free energy from SPR with dRNase B, relative to D60A"}, "[2]": {"target": "T1, denatured bovine pancreatic …", "test": "SPR (Biacore 3000), dRNase B immobilised on CM5"}, "[3]": {"target": "T1, denatured bovine pancreatic …", "test": "SPR (Biacore 3000), dRNase B immobilised on CM5; calculated from KD"}, "[4]": {"target": "T1, denatured bovine pancreatic …", "test": "SPR (Biacore 3000), dRNase B immobilised on CM5, steady state"}, "[5]": {"target": "T1, denatured bovine pancreatic …", "test": "experimental binding free energy from SPR with denatured RNase B"}, "Histone H2A type 1-B/E": {"target": "T2, Histone H2A type 1-B/E (human)", "T2 construct": "From MCF7 cell extract; also called H2A1B", "test": "R911 affinity column, MCF7 cell extract, chitobiose elution, LC-MS/MS"}, "Histone H2A type 2-C": {"target": "T3, Histone H2A type 2-C (human)", "T3 construct": "From MCF7 cell extract; also called H2A2C", "test": "R911 affinity column, MCF7 cell extract, chitobiose elution, LC-MS/MS"}, "Histone H2A.x": {"target": "T4, Histone H2A.x (human, UniProt P16104 2-143)", "T4 construct": "From MCF7 cell extract", "test": "R911 affinity column, MCF7 cell extract, chitobiose elution, LC-MS/MS"}, "Histone H2A.Z": {"target": "T5, Histone H2A.Z (human)", "T5 construct": "From MCF7 cell extract", "T5 sequence (chain, as listed by the source limits assumed)": "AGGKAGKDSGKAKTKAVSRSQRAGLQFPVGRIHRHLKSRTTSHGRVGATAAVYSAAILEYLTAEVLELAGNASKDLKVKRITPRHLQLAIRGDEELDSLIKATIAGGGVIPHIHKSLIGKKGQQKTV", "test": "R911 affinity column, MCF7 cell extract, chitobiose elution, LC-MS/MS"}, "[6]": {"target": "T6, RNase B deglycosylated with PNGase F (bovine, UniProt P61823 27-150)", "T6 construct": "mature; also called deglycosylated RNase B", "T6 sequence": "T1 sequence with N34D", "test": "R911 affinity chromatography"}},
  "note": "Positions count from the first letter of the chain named. Names may count otherwise.",
  "data": [
    {"binder": "B1", "values": [
      {"measurement": "ΔΔGBIND-EXP (relative to D60A)", "setting": "[1]", "result": 0.5, "unit": "kcal/mol"},
      {"measurement": "koff", "setting": "[2]", "result": 0.01, "unit": "s⁻¹"},
      {"measurement": "ΔGBIND-EXP", "setting": "[3]", "result": -7.1, "unit": "kcal/mol"},
      {"measurement": "Kd", "setting": "[4]", "result": 6400, "unit": "nM"}
    ]},
    {"binder": "B2", "values": [
      {"measurement": "ΔΔGBIND-EXP (relative to D60A)", "setting": "[1]", "result": -1.9, "unit": "kcal/mol"},
      {"measurement": "Relative Affinity Enhancement (against D60A)", "setting": "[2]", "result": 10, "unit": "fold"},
      {"measurement": "Relative Off-Rate Enhancement (against D60A)", "setting": "[2]", "result": 84, "unit": "fold"},
      {"measurement": "koff", "setting": "[2]", "result": 0.0051, "unit": "s⁻¹"},
      {"measurement": "ΔΔGBIND-EXP (relative to R911 C60A)", "setting": "[5]", "result": -1.2, "unit": "kcal/mol"},
      {"measurement": "binding result", "setting": "Histone H2A type 1-B/E", "result": "binds"},
      {"measurement": "binding result", "setting": "Histone H2A type 2-C", "result": "binds"},
      {"measurement": "binding result", "setting": "Histone H2A.x", "result": "binds"},
      {"measurement": "binding result", "setting": "Histone H2A.Z", "result": "binds"},
      {"measurement": "ΔGBIND-EXP", "setting": "[3]", "result": -8.99, "unit": "kcal/mol"},
      {"measurement": "Kd", "setting": "[4]", "result": 260, "unit": "nM"},
      {"measurement": "binding result", "setting": "[6]", "result": "no binding"}
    ]},
    {"binder": "B3", "values": [
      {"measurement": "Relative Affinity Enhancement (against D60A)", "setting": "[2]", "result": 1, "unit": "fold"},
      {"measurement": "Relative Off-Rate Enhancement (against D60A)", "setting": "[2]", "result": 1, "unit": "fold"},
      {"measurement": "koff", "setting": "[2]", "result": 0.43, "unit": "s⁻¹"},
      {"measurement": "ΔGBIND-EXP", "setting": "[3]", "result": -7.61, "unit": "kcal/mol"},
      {"measurement": "Kd", "setting": "[4]", "result": 2700, "unit": "nM"}
    ]},
    {"binder": "B4", "values": [
      {"measurement": "ΔΔGBIND-EXP (relative to D60A)", "setting": "[1]", "result": -0.7, "unit": "kcal/mol"},
      {"measurement": "Relative Affinity Enhancement (against D60A)", "setting": "[2]", "result": 1.3, "unit": "fold"},
      {"measurement": "Relative Off-Rate Enhancement (against D60A)", "setting": "[2]", "result": 35, "unit": "fold"},
      {"measurement": "koff", "setting": "[2]", "result": 0.012, "unit": "s⁻¹"},
      {"measurement": "ΔGBIND-EXP", "setting": "[3]", "result": -7.77, "unit": "kcal/mol"},
      {"measurement": "Kd", "setting": "[4]", "result": 2000, "unit": "nM"}
    ]}
  ]
}
